Laboratory results reported in patent publication US9981005B2, “Methods for increasing DISC1 in a subject with schizophrenia or bipolar disorder by an antagonist inhibiting DISC1 binding to FBXW7” (The University Court of the University of Glasgow, priority 2013, dated 2018).
Where no end group is shown, it is not given here. [ ]: non-standard residue; d: D form. pT = C[C@@H](OP(=O)(O)O)[C@H](N)C(=O)O; NMeE = CN[C@@H](CCC(=O)O)C(=O)O; pS = N[C@@H](COP(=O)(O)O)C(=O)O; NMeD = CN[C@@H](CC(=O)O)C(=O)O

biological target: FBXW7 (Homo sapiens, UniProt Q969H0); test: Peptides immobilised on membranes screened for the ability to bind FBXW7; type: binding
From the text: Peptides derived from DISC1 and containing the putative phospho-degron motif were immobilised on membranes and screened for the ability to bind FBXW7. […] (SEQ ID NO: 114).
The 7-mer peptide P-pT-P-P-G-pS-H (SEQ ID NO: 21) was used as the basis for further investigation. L- and D-forms of aspartic acid and glutamic acid (upper and lower case letters respectively) as well as N-methylated versions of each (designated “m”) were incorporated at positions 198 and 202.

FBXW7, sequence (Q969H0 whole entry): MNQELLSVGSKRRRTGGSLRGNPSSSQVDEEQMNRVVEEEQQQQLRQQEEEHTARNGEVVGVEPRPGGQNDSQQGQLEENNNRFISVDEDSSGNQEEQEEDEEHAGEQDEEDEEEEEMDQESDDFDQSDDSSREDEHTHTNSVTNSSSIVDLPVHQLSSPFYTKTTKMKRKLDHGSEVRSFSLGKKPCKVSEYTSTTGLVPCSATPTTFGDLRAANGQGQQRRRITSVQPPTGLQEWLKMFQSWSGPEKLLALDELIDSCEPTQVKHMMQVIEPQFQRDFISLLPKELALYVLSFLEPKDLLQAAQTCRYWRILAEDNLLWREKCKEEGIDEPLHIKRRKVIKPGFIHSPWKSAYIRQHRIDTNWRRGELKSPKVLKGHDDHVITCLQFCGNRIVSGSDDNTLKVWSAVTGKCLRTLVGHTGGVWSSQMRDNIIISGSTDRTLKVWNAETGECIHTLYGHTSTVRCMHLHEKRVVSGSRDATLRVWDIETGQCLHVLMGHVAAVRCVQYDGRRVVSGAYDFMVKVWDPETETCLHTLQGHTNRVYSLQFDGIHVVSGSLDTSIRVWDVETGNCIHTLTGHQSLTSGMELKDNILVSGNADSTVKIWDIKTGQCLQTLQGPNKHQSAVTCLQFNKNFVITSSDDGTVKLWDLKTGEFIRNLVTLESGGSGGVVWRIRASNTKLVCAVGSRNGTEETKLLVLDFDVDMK

| Substance | binding to FBXW7 |
| --- | --- |
| G-A-P-P-G-mE-H (GAPPG[NMeE]H) [Peptide A22] | retain or have improved binding to FBXW7 |
| G-d-P-A-G-mE-K (G[dD]PAG[NMeE]K) [Peptide A192] | retain or have improved binding to FBXW7 |
| G-d-P-P-G-mE [Peptide A5] | retain or have improved binding to FBXW7 |
| G-d-P-P-G-mE-H (G[dD]PPG[NMeE]H) [Peptide 173] | retain or have improved binding to FBXW7 |
| G-d-P-P-Q-mE-H (G[dD]PPQ[NMeE]H) [Peptide A12] | retain or have improved binding to FBXW7 |
| G-d-P-P-a-mE-k (G[dD]PP[dA][NMeE][dK]) [Peptide A196] | retain or have improved binding to FBXW7 |
| G-d-P-P-q-mE-H (G[dD]PP[dQ][NMeE]H) [Peptide A13] | retain or have improved binding to FBXW7 |
| G-d-P-a-G-mE-k (G[dD]P[dA]G[NMeE][dK]) [Peptide A193] | retain or have improved binding to FBXW7 |
| G-d-P-p-a-mE-H (G[dD]P[dP][dA][NMeE]H) [Peptide A170] | retain or have improved binding to FBXW7 |
| G-d-P-p-a-mE-h (G[dD]P[dP][dA][NMeE][dH]) [Peptide A171] | retain or have improved binding to FBXW7 |
| G-d-p-P-G-mE-H (G[dD][dP]PG[NMeE]H) [Peptide A180] | retain or have improved binding to FBXW7 |
| G-d-p-p-G-mE-H (G[dD][dP][dP]G[NMeE]H) [Peptide A172] | retain or have improved binding to FBXW7 |
| G-d-p-p-G-mE-h (G[dD][dP][dP]G[NMeE][dH]) [Peptide A174] | retain or have improved binding to FBXW7 |
| G-d-p-p-a-mE-H (G[dD][dP][dP][dA][NMeE]H) [Peptide A173] | retain or have improved binding to FBXW7 |
| G-d-p-p-a-mE-h (G[dD][dP][dP][dA][NMeE][dH]) [Peptide A175] | retain or have improved binding to FBXW7 |
| G-e-P-P-G-mE (G[dE]PPG[NMeE]) [Peptide A25] | retain or have improved binding to FBXW7 |
| G-e-P-P-G-mE-H (G[dE]PPG[NMeE]H) [Peptide 147] | retain or have improved binding to FBXW7 |
| G-mD-P-P-G-mE (G[NMeD]PPG[NMeE]) [Peptide A45] | retain or have improved binding to FBXW7 |
| G-mD-P-P-Q-mE-H (G[NMeD]PPQ[NMeE]H) [Peptide A52] | retain or have improved binding to FBXW7 |
| G-mD-P-p-G-mE-H (G[NMeD]P[dP]G[NMeE]H) [Peptide A56] | retain or have improved binding to FBXW7 |
| G-mE-P-P-q-mE-H (G[NMeE]PP[dQ][NMeE]H) [Peptide A73] | retain or have improved binding to FBXW7 |
| G-mE-P-p-G-mE-H (G[NMeE]P[dP]G[NMeE]H) [Peptide A76] | retain or have improved binding to FBXW7 |
| GPEVPPTPPGSHSAFTSSFSFIRL (listed as Homo sapiens) | Detectable binding |
| L-d-P-P-G-mE-H (L[dD]PPG[NMeE]H) [Peptide A98] | retain or have improved binding to FBXW7 |

| Substance | binding to FBXW7 |
| --- | --- |
| L-e-P-P-G-mE-H (L[dE]PPG[NMeE]H) [Peptide A137] | retain or have improved binding to FBXW7 |
| L-mD-P-P-G-mE-H (L[NMeD]PPG[NMeE]H) [Peptide A58] | retain or have improved binding to FBXW7 |
| P-A-P-P-G-mD-H (PAPPG[NMeD]H) [Peptide A102] | retain or have improved binding to FBXW7 |
| P-A-P-P-G-mE-H (PAPPG[NMeE]H) [Peptide A82] | retain or have improved binding to FBXW7 |
| P-E-P-P-G-d-H (PEPPG[dD]H) [Peptide 16] | retain or have improved binding to FBXW7 |
| P-E-P-P-G-mD (PEPPG[NMeD]) [Peptide A144] | retain or have improved binding to FBXW7 |
| P-E-P-P-G-mD-H (PEPPG[NMeD]H) [Peptide 64] | retain or have improved binding to FBXW7 |
| P-E-P-P-Q-mD-H (PEPPQ[NMeD]H) [Peptide A151] | retain or have improved binding to FBXW7 |
| P-P-G-mE-H (PPG[NMeE]H) [Peptide A189] | retain or have improved binding to FBXW7 |
| P-P-pT-P-P-G-pS-H (PP[pT]PPG[pS]H) | retain the ability to bind FBXW7 |
| P-d-P-P-G-mE (P[dD]PPG[NMeE]) [Peptide A85] | retain or have improved binding to FBXW7 |
| P-d-P-P-G-mE-H (P[dD]PPG[NMeE]H) [Peptide 82] | retain or have improved binding to FBXW7 |
| P-d-P-P-G-mE-K (P[dD]PPG[NMeE]K) [Peptide A194] | retain or have improved binding to FBXW7 |
| P-d-P-P-G-mE-k (P[dD]PPG[NMeE][dK]) [Peptide A195] | retain or have improved binding to FBXW7 |
| P-d-p-P-G-mE-H (P[dD][dP]PG[NMeE]H) [Peptide A97] | retain or have improved binding to FBXW7 |
| P-e-P-P-G-mD-H (P[dE]PPG[NMeD]H) [Peptide A101] | retain or have improved binding to FBXW7 |
| P-e-P-P-G-mE (P[dE]PPG[NMeE]) [Peptide A124] | retain or have improved binding to FBXW7 |
| P-e-P-P-G-mE-H (P[dE]PPG[NMeE]H) [Peptide 55] | retain or have improved binding to FBXW7 |
| P-e-P-P-Q-mE-H (P[dE]PPQ[NMeE]H) [Peptide A131] | retain or have improved binding to FBXW7 |
| P-e-P-P-q-mE-H (P[dE]PP[dQ][NMeE]H) [Peptide A132] | retain or have improved binding to FBXW7 |
| P-e-P-p-G-mE-H (P[dE]P[dP]G[NMeE]H) [Peptide A135] | retain or have improved binding to FBXW7 |
| P-e-p-P-G-mE-H (P[dE][dP]PG[NMeE]H) [Peptide A136] | retain or have improved binding to FBXW7 |
| P-pT-P-P-G-pS-H [A80] (P[pT]PPG[pS]H) [Peptide A80] | retain or have improved binding to FBXW7 |
| P-pT-P-P-G-pS-H [A100] (P[pT]PPG[pS]H) [Peptide A100] | retain or have improved binding to FBXW7 |

| Substance | binding to FBXW7 |
| --- | --- |
| P-pT-P-P-G-pS-H [A119] (P[pT]PPG[pS]H) [Peptide A119] | retain or have improved binding to FBXW7 |
| P-pT-P-P-G-pS-H [A139] (P[pT]PPG[pS]H) [Peptide A139] | retain or have improved binding to FBXW7 |
| P-pT-P-P-G-pS-H [A185] (P[pT]PPG[pS]H) [Peptide A185] | retain or have improved binding to FBXW7 |
| P-pT-P-P-G-pS-H [P-pT-P-P-G-pS-H] (P[pT]PPG[pS]H) | retain the ability to bind FBXW7 |
| P-pT-P-P-G-pS-H-S (P[pT]PPG[pS]HS) | retain the ability to bind FBXW7 |
| a-d-P-P-G-mE-h ([dA][dD]PPG[NMeE][dH]) [Peptide A164] | retain or have improved binding to FBXW7 |
| a-d-P-P-a-mE-H ([dA][dD]PP[dA][NMeE]H) [Peptide A166] | retain or have improved binding to FBXW7 |
| a-d-P-P-a-mE-h ([dA][dD]PP[dA][NMeE][dH]) [Peptide A165] | retain or have improved binding to FBXW7 |
| a-d-P-P-a-mE-k ([dA][dD]PP[dA][NMeE][dK]) [Peptide A197] | retain or have improved binding to FBXW7 |
| a-d-P-p-G-mE-H ([dA][dD]P[dP]G[NMeE]H) [Peptide A161] | retain or have improved binding to FBXW7 |
| a-d-P-p-a-mE-h ([dA][dD]P[dP][dA][NMeE][dH]) [Peptide A168] | retain or have improved binding to FBXW7 |
| a-d-p-P-G-mE-H ([dA][dD][dP]PG[NMeE]H) [Peptide A162] | retain or have improved binding to FBXW7 |
| a-d-p-p-G-mE-H ([dA][dD][dP][dP]G[NMeE]H) [Peptide A163] | retain or have improved binding to FBXW7 |
| a-d-p-p-a-mE-h ([dA][dD][dP][dP][dA][NMeE][dH]) [Peptide A169] | retain or have improved binding to FBXW7 |
| a-e-P-P-G-mE-H ([dA][dE]PPG[NMeE]H) [Peptide A130] | retain or have improved binding to FBXW7 |
| a-mD-P-P-G-mE-H ([dA][NMeD]PPG[NMeE]H) [Peptide A51] | retain or have improved binding to FBXW7 |
| a-mE-P-P-G-mE-H ([dA][NMeE]PPG[NMeE]H) [Peptide A71] | retain or have improved binding to FBXW7 |
| d-P-P-G-mE-H ([dD]PPG[NMeE]H) [Peptide A86] | retain or have improved binding to FBXW7 |
| e-P-P-G-mE-H ([dE]PPG[NMeE]H) [Peptide A26] | retain or have improved binding to FBXW7 |
| l-d-P-P-G-mE-H ([dL][dD]PPG[NMeE]H) [Peptide A99] | retain or have improved binding to FBXW7 |
| l-e-P-P-G-mE-H ([dL][dE]PPG[NMeE]H) [Peptide A138] | retain or have improved binding to FBXW7 |
| l-mE-P-P-G-mE-H ([dL][NMeE]PPG[NMeE]H) [Peptide A79] | retain or have improved binding to FBXW7 |
| p-d-P-P-G-mE-H ([dP][dD]PPG[NMeE]H) [Peptide A181] | retain or have improved binding to FBXW7 |
| p-d-P-P-G-mE-h ([dP][dD]PPG[NMeE][dH]) [Peptide A184] | retain or have improved binding to FBXW7 |
